Results: paper PMC10300122, “K235 acetylation couples with PSPC1 to regulate the m^6A demethylation activity of ALKBH5 and tumorigenesis” (Nature Communications, 2023)
Each block holds one binder with its values, some of them ahead of it.

Molecular target: T1, recombinant PSPC1-His (UniProt Q8WXF1 1-523)
T1 construct: paraspeckle component 1 (PSPC1) cloned into the pET 26b vector; source: E. coli BL21 (DE3), purified (His-tag Protein Purification Kit)
T1 sequence (looked up): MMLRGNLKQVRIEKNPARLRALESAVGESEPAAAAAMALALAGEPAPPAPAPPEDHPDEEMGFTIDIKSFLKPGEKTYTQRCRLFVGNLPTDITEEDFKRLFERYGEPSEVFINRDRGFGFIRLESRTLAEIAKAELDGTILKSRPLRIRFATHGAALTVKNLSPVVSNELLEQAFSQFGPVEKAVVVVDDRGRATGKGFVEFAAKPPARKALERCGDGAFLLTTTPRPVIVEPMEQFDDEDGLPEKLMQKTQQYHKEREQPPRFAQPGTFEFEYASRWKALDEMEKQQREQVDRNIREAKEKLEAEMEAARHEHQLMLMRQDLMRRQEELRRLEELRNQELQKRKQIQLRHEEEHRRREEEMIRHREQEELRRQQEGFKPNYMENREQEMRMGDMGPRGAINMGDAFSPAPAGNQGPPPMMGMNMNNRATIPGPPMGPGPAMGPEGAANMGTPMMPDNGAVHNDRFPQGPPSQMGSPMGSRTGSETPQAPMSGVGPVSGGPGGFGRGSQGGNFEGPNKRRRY
Experiment: pull-down; GST pull-down: GST-ALKBH5 on glutathione beads (untreated or K235-acetylated by immunopurified KAT8) incubated with PSPC1-His at 4 °C for 1 h; washed with 20 mM HEPES pH 7.6, 0.1 M KCl, 0.1 μM EDTA, 10% glycerol, 0.02% NP-40; western blot
Details: both partners purified

- binding result: binds
B1: recombinant GST-ALKBH5 (enzyme, UniProt Q6P6C2 1-394, looked up)
chain: MAAASGYTDLREKLKSMTSRDNYKAGSREAAAAAAAAVAAAAAAAAAAEPYPVSGAKRKYQEDSDPERSDYEEQQLQKEEEARKVKSGIRQMRLFSQDECAKIEARIDEVVSRAEKGLYNEHTVDRAPLRNKYFFGEGYTYGAQLQKRGPGQERLYPPGDVDEIPEWVHQLVIQKLVEHRVIPEGFVNSAVINDYQPGGCIVSHVDPIHIFERPIVSVSFFSDSALCFGCKFQFKPIRVSEPVLSLPVRRGSVTVLSGYAADEITHCIRPQDIKERRAVIILRKTRLDAPRLETKSLSSSVLPPSYASDRLSGNNRDPALKPKRSHRKADPDAAHRPRILEMDKEENRRSVLLPTHRRRGSFSSENYWRKSYESSEDCSEAAGSPARKVKMRRH
notes: AlkB homolog 5 (ALKBH5) cloned into the pGEX vector; also called recombinant ALKBH5; source: E. coli BL21 (DE3), purified (Glutathione Sepharose)

- binding result: binds
B2: recombinant K235-acetylated GST-ALKBH5 (enzyme, UniProt Q6P6C2 1-394, looked up)
chain: B1 chain
modifications: acetyl-lysine at 235
notes: AlkB homolog 5 (ALKBH5) cloned into the pGEX vector; The same construct as m6 after treatment with KAT8; source: E. coli BL21 (DE3), purified (Glutathione Sepharose), then K235-acetylated by immunopurified KAT8
